Source: paper PMC3954559

Key:
[1] = biological target: commercial immunoglobulin containing Fc; assay: SPR
[2] = biological target: partially deglycosylated Fc (mouse IgG3 Fc domain treated with a mixture of endoglycosidases) (mouse); assay: SPR

B1: mouse Fc receptor (FcR gamma I) (receptor)
chain: EVVNATKAVITLQPPWVSIFQKENVTLWCEGPHLPGDSSTQWFINGTAVQISTPSYSIPEASFQDSGEYRCQIGSSMPSDPVQLQIHNDWLLLQASRRVLTEGEPLALRCHGWKNKLVYNVVFYRNGKSFQFSSDSEVAILKTNLSHSGIYHCSGTGRHRYTSAGVSITVKELFTTPVLRASVSSPFPEGSLVTLNCETNLLLQRPGLQLHFSFYVGSKILEYRNTSSEYHIARAEREDAGFYWCEVATEDSSVLKRSPELELQVLGPQSSAPVWFHILFYLSVGIMFSLNTVLYVKIHRLQREKKYNLEVPLVSEQGKKANSFQQVRSDGVYEEVTATASQTTPKEAPDGPRSSVGDCGPEQPEPLPPSDSTGAQTSQS
B1 gave a Kd [1] of 384 nM and a Kd [2] of 1330 nM.
